Experimental data: US20110059887A1

Target: Human IGF Receptor (Type I IGF receptor) (human) (UniProt P08069)
Assay: microtiter plate antibody capture competition assay with IGF Type I receptor

Human IGF Receptor (Type I IGF receptor) (human), sequence (P08069 31-1367 limits assumed): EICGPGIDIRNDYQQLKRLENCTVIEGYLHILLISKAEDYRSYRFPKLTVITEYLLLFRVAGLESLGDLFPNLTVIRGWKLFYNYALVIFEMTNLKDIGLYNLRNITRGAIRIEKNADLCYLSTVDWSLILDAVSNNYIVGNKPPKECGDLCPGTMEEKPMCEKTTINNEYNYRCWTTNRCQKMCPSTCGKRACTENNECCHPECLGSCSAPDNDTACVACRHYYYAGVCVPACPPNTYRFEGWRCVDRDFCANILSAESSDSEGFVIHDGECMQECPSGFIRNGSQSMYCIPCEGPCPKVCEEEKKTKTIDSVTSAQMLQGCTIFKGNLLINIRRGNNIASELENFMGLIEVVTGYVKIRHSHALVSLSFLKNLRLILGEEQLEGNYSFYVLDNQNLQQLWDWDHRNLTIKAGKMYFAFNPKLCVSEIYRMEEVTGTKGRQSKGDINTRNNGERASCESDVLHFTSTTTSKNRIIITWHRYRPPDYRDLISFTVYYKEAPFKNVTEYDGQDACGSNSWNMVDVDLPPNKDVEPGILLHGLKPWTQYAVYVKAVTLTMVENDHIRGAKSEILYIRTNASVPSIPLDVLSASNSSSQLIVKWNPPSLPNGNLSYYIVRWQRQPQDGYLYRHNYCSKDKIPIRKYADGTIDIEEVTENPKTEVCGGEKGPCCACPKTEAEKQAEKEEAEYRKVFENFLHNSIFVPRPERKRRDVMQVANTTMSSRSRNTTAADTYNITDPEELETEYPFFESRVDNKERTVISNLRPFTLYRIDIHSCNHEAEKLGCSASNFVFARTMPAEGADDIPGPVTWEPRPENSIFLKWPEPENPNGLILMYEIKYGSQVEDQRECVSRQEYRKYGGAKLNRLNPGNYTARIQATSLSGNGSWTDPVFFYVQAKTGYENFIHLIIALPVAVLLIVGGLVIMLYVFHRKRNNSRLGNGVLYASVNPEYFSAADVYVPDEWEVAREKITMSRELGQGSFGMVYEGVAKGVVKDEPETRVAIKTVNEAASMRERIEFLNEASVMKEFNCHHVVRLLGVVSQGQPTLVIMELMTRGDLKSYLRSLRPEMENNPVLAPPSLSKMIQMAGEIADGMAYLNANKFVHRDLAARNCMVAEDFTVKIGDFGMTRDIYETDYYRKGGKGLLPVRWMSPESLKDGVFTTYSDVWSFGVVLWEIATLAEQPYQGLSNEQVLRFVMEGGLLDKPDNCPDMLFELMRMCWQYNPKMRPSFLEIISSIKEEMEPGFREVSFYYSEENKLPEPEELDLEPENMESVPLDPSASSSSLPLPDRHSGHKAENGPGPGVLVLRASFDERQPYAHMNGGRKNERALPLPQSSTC

- Affinity for IGFR (compared to that of human insulin): 90
Substance: KP-insulin (SEQ. ID. NOS. 2 & 4) (ligand; other documents disagree on this pair)
